Experimental data from patent publication KR20210116113A.

Experiments:
[1] = target: T1, c-Myc 펩타이드 (…); assay: ELISA, c-Myc peptide coated at 2 ug/ml, scFv at 1 ug/ml (replicate), anti-HA peroxidase detection
T1 sequence (peptide): MPLNVSFTSRNYDLD

[2] = target: T1, c-Myc 펩타이드 (…); assay: ELISA, c-Myc peptide coated at 2 ug/ml, scFv at 0.5 ug/ml (replicate), anti-HA peroxidase detection
[3] = target: T1, c-Myc 펩타이드 (…); assay: ELISA, c-Myc peptide coated at 2 ug/ml, scFv at 4 ug/ml, anti-HA peroxidase detection
[4] = target: T1, c-Myc 펩타이드 (…); assay: ELISA, c-Myc peptide coated at 2 ug/ml, scFv at 1 ug/ml, anti-HA peroxidase detection
[5] = target: T1, c-Myc 펩타이드 (…); assay: ELISA, c-Myc peptide coated at 2 ug/ml, scFv at 0.5 ug/ml, anti-HA peroxidase detection
[6] = target: T1, c-Myc 펩타이드 (…); assay: ELISA, c-Myc peptide coated at 2 ug/ml, scFv at 4 ug/ml (replicate), anti-HA peroxidase detection
[7] = target: T1, c-Myc 펩타이드 (…); assay: ELISA, c-Myc peptide coated at 2 ug/ml, scFv at 2 ug/ml, anti-HA peroxidase detection
[8] = target: T1, c-Myc 펩타이드 (…); assay: ELISA, c-Myc peptide coated at 2 ug/ml, scFv at 2 ug/ml (replicate), anti-HA peroxidase detection

absorbance at 450 nm (antigen(peptide) coating) [1]: 0.788 OD 450nm
delta (absorbance at 450 nm minus background control) [1]: 0.735 OD 450nm
absorbance at 450 nm (antigen(peptide) coating) [2]: 0.431 OD 450nm
delta (absorbance at 450 nm minus background control) [2]: 0.379 OD 450nm
absorbance at 450 nm (antigen(peptide) coating) [3]: 2.15 OD 450nm
delta (absorbance at 450 nm minus background control) [3]: 2.1 OD 450nm
absorbance at 450 nm (antigen(peptide) coating) [4]: 0.808 OD 450nm
delta (absorbance at 450 nm minus background control) [4]: 0.756 OD 450nm
absorbance at 450 nm (antigen(peptide) coating) [5]: 0.415 OD 450nm
delta (absorbance at 450 nm minus background control) [5]: 0.363 OD 450nm
absorbance at 450 nm (antigen(peptide) coating) [6]: 2.17 OD 450nm
delta (absorbance at 450 nm minus background control) [6]: 2.11 OD 450nm
absorbance at 450 nm (antigen(peptide) coating) [7]: 1.31 OD 450nm
delta (absorbance at 450 nm minus background control) [7]: 1.26 OD 450nm
absorbance at 450 nm (antigen(peptide) coating) [8]: 1.3 OD 450nm
delta (absorbance at 450 nm minus background control) [8]: 1.25 OD 450nm
B1: clone 1D1 항체 (scFv, anti-c-Myc-tag 1D1) (scFv)
scFv: LTQPSSVSANLGETQDHCSGGGSNSAYGWFQQKSPGSAPVTLIYDNTNRPSNIPSRFSGSKSGSTATLTITGVQADDEAVYYCGSAGSSYVGIFGAGTTLTVLGQSSRSSSGGGSSGGGGSAVTLDESGGGLQTPGGGLSLVCKGSGFTFSSYQMNWIRQAPGKGLEFVAAINRFGNRTGYGAAVKGRATISRGDGQSTVRLQLNNLRAEDTATYYCAKAAYGYCGSGGWRDVAGTDAWGHGTEVIVSSTS
